Assay results as given in patent US20140322218A1 (Amgen, published 2014).
Values belong to the binder of their own block, whether it stands above or below them.

Key:
[1] = target: T1, muCDH19(44-139)::huCDH19(142-364)::muCDH19(363-770), Flag-tagged, on 293T cells (human/mouse chimera); experiment: FACS, transfected 293T
T1 construct: also called Hu EC2-3; C137847
Text: (§1) The experiment included assaying the anti-CDH19 antibodies against mouse Cadherin19 to determine suitability for binning on these human/mouse chimeras.

[2] = target: T2, muCDH19(44-247)::huCDH19(250-364)::muCDH19(363-770), Flag-tagged, on 293T cells (human/mouse chimera); experiment: FACS, transfected 293T
T2 construct: also called Hu EC3; C137911
Text: as §1

[3] = target: T3, (1-43)::FLAG::muCDH19(44-323)::raCDH19(324-327)::muCDH19(328-770), on 293T cells (mouse/rat chimera); experiment: FACS, transfected 293T
T3 construct: Entry holds leader (1-43), Flag tag and CDH19 part; leader left out; also called Ra EC3c
T3 chain: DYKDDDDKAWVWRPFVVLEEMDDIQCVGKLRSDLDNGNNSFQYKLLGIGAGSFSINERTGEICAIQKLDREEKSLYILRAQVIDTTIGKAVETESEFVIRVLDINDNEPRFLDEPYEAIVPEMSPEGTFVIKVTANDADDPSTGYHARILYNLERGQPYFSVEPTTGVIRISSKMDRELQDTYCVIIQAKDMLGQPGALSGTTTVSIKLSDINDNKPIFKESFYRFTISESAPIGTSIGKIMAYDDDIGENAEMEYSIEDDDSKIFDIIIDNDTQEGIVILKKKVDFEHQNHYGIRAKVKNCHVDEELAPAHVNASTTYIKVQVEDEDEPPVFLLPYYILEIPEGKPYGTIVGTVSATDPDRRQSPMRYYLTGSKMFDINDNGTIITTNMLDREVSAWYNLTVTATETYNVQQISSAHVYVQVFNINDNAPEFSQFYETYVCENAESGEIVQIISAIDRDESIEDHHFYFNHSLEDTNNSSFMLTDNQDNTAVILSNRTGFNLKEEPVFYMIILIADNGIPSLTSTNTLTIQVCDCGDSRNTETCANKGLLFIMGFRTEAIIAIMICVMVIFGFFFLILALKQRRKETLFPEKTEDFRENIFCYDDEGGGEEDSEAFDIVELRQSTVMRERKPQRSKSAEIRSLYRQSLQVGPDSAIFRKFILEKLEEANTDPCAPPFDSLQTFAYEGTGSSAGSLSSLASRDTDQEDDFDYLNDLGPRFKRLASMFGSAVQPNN

[4] = target: T4, caCDH19(1-42)::FLAG::caCDH19(43-770), on 293T cells (dog); experiment: FACS, transfected 293T
T4 construct: also called Ca EC1-5
T4 chain: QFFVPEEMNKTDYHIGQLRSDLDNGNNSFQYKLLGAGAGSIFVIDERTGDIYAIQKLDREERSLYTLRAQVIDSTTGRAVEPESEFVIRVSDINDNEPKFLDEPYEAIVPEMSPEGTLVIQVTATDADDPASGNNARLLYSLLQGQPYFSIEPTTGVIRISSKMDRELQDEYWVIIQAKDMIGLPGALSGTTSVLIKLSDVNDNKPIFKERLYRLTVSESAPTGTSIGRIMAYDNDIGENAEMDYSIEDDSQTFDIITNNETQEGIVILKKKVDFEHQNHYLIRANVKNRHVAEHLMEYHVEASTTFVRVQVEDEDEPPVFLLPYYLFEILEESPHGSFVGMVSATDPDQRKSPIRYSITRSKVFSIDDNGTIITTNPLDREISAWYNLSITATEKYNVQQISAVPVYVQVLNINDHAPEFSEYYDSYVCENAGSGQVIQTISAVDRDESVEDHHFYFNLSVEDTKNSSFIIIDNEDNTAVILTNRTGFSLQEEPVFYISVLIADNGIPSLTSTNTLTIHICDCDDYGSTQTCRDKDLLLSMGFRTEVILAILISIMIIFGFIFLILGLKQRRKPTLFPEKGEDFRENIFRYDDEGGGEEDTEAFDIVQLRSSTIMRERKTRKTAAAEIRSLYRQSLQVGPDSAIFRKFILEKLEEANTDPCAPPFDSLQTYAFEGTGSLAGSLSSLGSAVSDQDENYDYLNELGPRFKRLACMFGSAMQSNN
Experimental: (§2) The following binding assay was completed in presence of 2 mM CaCl2. […] Cells were then washed one time and the amount of cell associated Alexa647-labelled Ab was quantitated by flow cytometry. The experiments included mock transfected controls.

[5] = target: T5, rhCDH19(1-43)::FLAG::rhCDH19(44-141)::caCDH19(141-770), on 293T cells (rhesus macaque/dog chimera); experiment: FACS, transfected 293T
T5 construct: Entry holds leader (1-43), Flag tag and CDH19 part; leader left out; also called rh EC1 (dog backbone)
Experimental: as §2

[6] = target: T6, rhCDH19(1-43)::FLAG::rhCDH19(44-65)::caCDH19(65-770), on 293T cells (rhesus macaque/dog chimera); experiment: FACS, transfected 293T
T6 construct: Entry holds leader (1-43), Flag tag and CDH19 part; leader left out; also called rh EC1a (dog backbone)
Experimental: as §2

Human Cadherin-19 = target: T7, Human Cadherin-19 (human, UniProt Q9H159 44-772); experiment: FACS, endogenous CDH19 on CHL-1/Colo699
T7 construct: Residues 1-43 are named as the native leader in the construct designations and are left out; also called human CDH19; huCDH19
Experimental: FACS binding assays were performed to evaluate the binding of the anti-Cadherin-19 receptor specific antibodies to endogenous Cadherin-19 receptor expressed on the CHL-1 tumor cell lines.
FACs assays were performed by incubating hybridoma supernatants with 10,000 to 25,000 cells in PBS/2% Fetal bovine serum/2 mM Calcium Chloride at 4° C. for one hour followed by two washes with PBS/2% Fetal bovine serum/2 mM Calcium Chloride. Cells were then treated with florochrome-labeled secondary antibodies at 4° C. followed by one wash. The cells were resuspended in 50 μl of PBS/2% FBS and antibody binding was analyzed using a FACSCalibur™ instrument.

binding result [1]: binds | binding result [2]: binds | binding result [3]: binds
B1: anti-CDH19 antibody 2G6 (Ab ID 13588) (antibody, human IgG1, lambda, V domains shown)
VH: QVQLVESGGGVVQPGRSLRLSCAASGFTFSSYGMHWVRQAPGKGLEWVAFIWYDGSNKYYADSVKDRFTISRDNSKNTLYLQMKSLRAEDTAVYYCARRAGIIGTIGYYYGMDVWGQGTTVTVSS
VL: SYELTQPPSVSVSPGQTASITCSGDRLGEKYTCWYQQRPGQSPLLVIYQDTKRPSGIPERFSGSNSGNTATLTISGTQAMDEADYYCQAWDSSTVVFGGGTKLTVLG

binding result [4]: no binding (tested: 5 ug/ml) | binding result [5]: binds | binding result [6]: no binding (tested: 5 ug/ml) | binding result (Human Cadherin-19): binds
B2: hu anti-<huCDH19> 4A9 VH::huIgG1z / 4A9 VL::huLLC-C1 (Ab ID 13589) (antibody, V domains shown)
VH: QVQLQESGPGLVKPSETLSLTCTVSGGSISGYYWSWIRQPPGKGLEWFAYFSYSGSTNYNPSLKSRVTLSVDTSKNQFSLKLSSVTAADTAVYYCARNWAFHFDFWGQGTLVTVSS
VL: QSVLTQPPSVSGAPGQRVTISCTGSSSNIGTGYAVHWYQQFPGTAPKLLIYGNNNRPSGVPDRFSGSKSGTSASLAITGLQAEDEADYYCQSYDSRLSGWVFGGGTKLTVLG
notes: Recombinant fully human IgG1

binding result [4]: no binding (tested: 5 ug/ml) | binding result [5]: binds | binding result [6]: binds | binding result (Human Cadherin-19): binds
B3: hu anti-<huCDH19> 26D1.1 VH::huIgG1z / 26D1.1 VL::huLLC-C2 (Ab ID 13882) (antibody, V domains shown)
VH: QVQLVQSGAEVKKPGASVKVSCKASRYTFTSYYMSWVRQAPGQGLEWMGIIHPSGGDTTYAQKFQGRVTMTGDTSTSTVYMELSSLRSEDTAVYYCARGGIKLWLHFDYWGQGTLVTVSS
VL: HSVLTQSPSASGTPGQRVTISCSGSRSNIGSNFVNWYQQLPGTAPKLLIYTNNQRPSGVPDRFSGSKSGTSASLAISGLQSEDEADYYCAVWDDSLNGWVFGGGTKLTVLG

binding result [1]: binds | binding result [2]: binds | binding result [3]: binds
B4: hu anti-<huCDH19> 4B10 VH::huIgG1z / 4B10 VL::huKLC (Ab ID 13590) (antibody, V domains shown)
VH: QVQLVESGGGVVQPGRSLRLSCAASGFTFSSYDMHWVRQAPGKGLEWVAVISYDGTNEYYADSVKGRFTISRDTSKNTLYLQMNSLRAEDTAVYYCARERYFDWSFDYWGQGTLVSVSS
VL: EIVLTQSPGTLSLSPGERATLSCRASQSVSNTYLAWYHQRPGQAPRLLIYGASSRATGIPDRFSGSGSGTDFALTISSLEPEDFAVYYCQQYSNSWTFGQGTKVEIKR
